Data taken from patent US20260234269.
Positions count from the first letter of the chain named.

B1: 6H6.2D6 (protein)
chain 1: QIQLVQSGPELKKPGETVKISCKASGYTFTTYGMSWVKQAPGKGLKWMAWINTYSGVPTYADDFKGRFAFSLETSASTAYLQINNLTNEDTATYFCARGPYAMDYWGQGTSVTVSS
chain 2: DIQMTQTTSSLSASLGDRVTISCSASQGISNYLNWYQQKPDGTVKLLIYYTSSLHSGVPSRFSGSGSGTDYSLTISNLEPEDIATYYCQQYSELPYTFGSGTKLEIK
B2: 20H5.A3 (protein)
chain 1: B1 chain 1 with T17S, T28A, K38Q, A49G, I51V, Y60C, T87R
chain 2: B1 chain 2 with S22N, G28D, H55L, Y87F, E93K, K103H
B3: 19B5.2E6 (protein)
chain 1: B1 chain 1 with G33A, A49G, F64L, T87K
chain 2: B1 chain 2 with S30N, T51A, E93Q, L94V
B4: 23H9.2E4 (protein)
chain 1: B1 chain 1 with G33A, A49G, F64L, T87K
chain 2: B1 chain 2 with S30N, T51A, E93Q, L94V
B5: 846T.1H2 (protein)
chain 1: QIQLVQSGPELKKPGETVKISCKASGYTFTNYGMNWVKQAPGKGLKWMGWINTNTGEPTYAEEFKGRFAFSLETSASTAYLQINNLKNEDTATYFCATGGGNWDFDYWGQGTTLTVSS
chain 2: not shown
B6: 13H12.2F8 (protein)
chain 1: QIQLVQSGPELKKPGETVKISCKASGYTFTTYGMSWVKQAPGKGLKWMGWINTYSGVPTYADDFKGRFAFSLETSASTAYLQINNLKNEDTATYFCAVPYEYDGAYWGQGTLVTVSA
chain 2: not shown
B7: 14H10.2C9 (protein)
chain 1: B6 chain 1 with S35G, G44D, N84S, A97S, V98T
chain 2: not shown
B8: 19D9.2E5 (protein)
chain 1: B6 chain 1 with S35G, A76T, T91M, V98T
chain 2: not shown
B9: 15G7.2A7 (protein)
chain 1: EVQLQQSGPELVKPGASVKISCKASGYTFTDYYMNWVKQSHGKSLEWIGDINPNNGGTNYNQKFKGKATLTVDKSSSTAYMELRSLTSEDSAVYYCTSGYGFPYWGQGTLVTVSA
chain 2: DIQMNQSPSSLSASLGDTISITCRASQNINIWLSWYQQKPGNIPQLLIYKASNLHTGVPSRFSGSGSGTDFTLTISSLQPEDIATYYCLQGQSYPLTFGAGTKLVMK
B10: 20D11.2C6 (protein)
chain 1: B9 chain 1 with Y32F, M34I, N54K, T58I, Q62P, G66I, A79S, E82D, S85G
chain 2: B9 chain 2 with S20T, N30Y, Q45K, S77T, Y87F, V105E
B11: 13A12.2E5 (protein)
chain 1: QIQLVQSGPELKKPGETVKISCKTSGYKFKTYVMSWVKQAPGKALKWMGWINTYSGVPTYADDFKGRFAFSLETSASTAYLEIINLKNEDTATYFCARDGNYGDPMDYWGQGTSVTVSS
chain 2: DVVMTQTPLTLSVAIGQPASISCKSSQSLLYTNGKTYLNWLLQRPGQSPKRLIYLLSKLDSGVPDRFSASGSGTDFTLKISRVEAEDLGVYYCLQSTHFPLTFGAGTKLEMK
B12: 3B11.2G2 (protein)
chain 1: B11 chain 1
chain 2: not shown
B13: 2D10.2B2 (protein)
chain 1: QVQLQQSGPELVKPGASVKISCKASGYTFTDYYINWVKQRPGQGLEWIGWIYPGSNDTKYNEKFKGKATLTVDTSSSTAYMQLGSLTSEDSAVYFCANYFGCSGWFFDVWGTGTTVTVSS
chain 2: DIVMTQAAFSNPVTLGTSASISCRSSKSLLHSDGITYLYWYLQRPGQSPQLLIYRMSNLASGVPDRFSGSGSGTDFTLRISRVEAEDVGVYYCAQMIEFPLTFGAGTILELK
B14: 4A11.2B5 (protein)
chain 1: QVQLQQSGPELVKPGASVKISCKASGYSFTNYYIHWVKQRPGQGLEWIGWIYPGSGNTNYNEKFKGKATLTADTSSSTTNMQLSSLTSEDSAVYYCSTAPGGFDVWGSGTTVTVSS
chain 2: B13 chain 2 with I97L, I108K
B15: 846.2H3 (protein)
chain 1: QIQLVQSGPELKKPGETVKISCKASGYTFTNYGMNWVKQAPGKGLKWMGWINTYTGEPSYADDFKGRFAFSLETSASTAYLQINNLKNEDMATYFCARWGGYDGDYYAMDYWGQGTSVTVSS
chain 2: NIMMTQSPSSLAVSAGEKVTMSCKSSQSVLYSSNQKNYLAWYQQKPGQSPKLLIYWASTRESGVPDRFTGSGSGTDFTLTISSVQPEDLAVYYCHQYLSSLTFGAGTKLELK
B16: 846.1F5 (protein)
chain 1: B15 chain 1
chain 2: B15 chain 2
B17: 4G2.2G6 (protein)
chain 1: QIQLVQSGPDLKKPGETVKISCKASGYTFTTYVMSWVKQAPGKDLKWMGWINTHSGVPTYADDFKGRFDFSLETSANTAFLQINNLKNEDTATYFCTRDGNDGDAMDNWGQGTSVTVSS
chain 2: not shown
B18: mIMT001 (IMT001) (protein)
chain 1: QIQLVQSGPELKKPGETVKISCKASGYTFTNYGMNWVKQAPGKGLKWMGWINTNTGEPTYVEEFKGRFAFSLETSASTAYLQINNLKNEDTATYFCAPYDNFFAYWGQGTLVTVSA
chain 2: DIVITQDELSNPVTSGESVSISCRSSKSLLYKDGKTYLNWFLQRPGQSPQLLIYLMSTHASGVSDRFSGSGSGTDFTLEISRVKAEDVGVYYCQQLVDYPLTFGAGTKLELK

Target: Human Galectin-3 protein (Acro Biosystems, GA3-H5129)
Assay: ELISA, hGal3 coated, competitor hTIM3 (FIG. 24)

Row | Protein | GAL3-TIM3 assembly, % of level without antibody
1 | B1 | to 5-20% of levels observed in the absence of a GAL3-targeted antibody
2 | B2 | to 5-20% of levels observed in the absence of a GAL3-targeted antibody
3 | B3 | to 20-50% of levels observed in the absence of a GAL3-targted antibody
4 | B4 | to 20-50% of levels observed in the absence of a GAL3-targted antibody
5 | B5 | to 5-20% of levels observed in the absence of a GAL3-targeted antibody
6 | B6 | to 20-50% of levels observed in the absence of a GAL3-targted antibody
7 | B7 | to 50-75% of levels observed in the absence of a GAL3-targeted antibody
8 | B8 | to 50-75% of levels observed in the absence of a GAL3-targeted antibody
9 | B9 | to 50-75% of levels observed in the absence of a GAL3-targeted antibody
10 | B10 | to 50-75% of levels observed in the absence of a GAL3-targeted antibody
11 | B11 | to 50-75% of levels observed in the absence of a GAL3-targeted antibody
12 | B12 | to 50-75% of levels observed in the absence of a GAL3-targeted antibody
13 | B13 | to 5-20% of levels observed in the absence of a GAL3-targeted antibody
14 | B14 | to 50-75% of levels observed in the absence of a GAL3-targeted antibody
15 | B15 | to less than 5% of levels observed in the absence of a GAL3-targeted antibody
16 | B16 | to 5-20% of levels observed in the absence of a GAL3-targeted antibody
17 | B17 | to 50-75% of levels observed in the absence of a GAL3-targeted antibody
18 | B18 | to 5-20% of levels observed in the absence of a GAL3-targeted antibody
